Kd and Neutralization in NHDF, IL-6 IC50 data for 2 molecules are collected here from US11680110B2, “Three-dimensional structure-based humanization method” (Hoffmann-La Roche Inc., dated 2023).

The target of assay [1] is T1, recombinant human IL-17 (human, UniProt Q16552).
T1 sequence: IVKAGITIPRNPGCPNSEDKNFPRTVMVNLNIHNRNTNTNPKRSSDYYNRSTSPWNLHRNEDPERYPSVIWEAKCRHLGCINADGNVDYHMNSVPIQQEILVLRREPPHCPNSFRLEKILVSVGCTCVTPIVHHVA
Description: SPR, BIAcore 3000, antibody captured, antigen injected.

For assay [2], the target named is T1, recombinant human IL-17.
Assay [3] has as its target T1, recombinant human IL-17. Description: SPR, BIAcore 3000, antibody captured by anti-human IgG, antigen injected.

One may read the Kd as the equilibrium constant for the complex coming apart.

B1: murine anti-IL17 antibody (antibody, V domains shown)
VH: QVQLKESGPGLVAPSQSLSITCTVSGFSLDSYGVHWVRQPPGKGLEWLVVIWSDGTTTYNSALKSRLSITKDNSKSQVFLKMNSLQTDDTAIYYCARDTHYRLYYYAMDYWGQGTSVTVSS
VL: DVVMTQTPLSLPVSLGDQASISCRSSQSLVHSNGDTYFHWYLQKPGQSPKLLIYKVSNRFSGVPDRFSGSGSGTDFTLKINRVEAEDLGVYFCSQTTHAPFTFGSGTKLEIK
On to B1, for which the Kd in assay [1] was 0.05 nM. In addition, the Neutralization in NHDF, IL-6 IC50 in assay [2] was determined as 0.21 nM.

B2: chimeric anti-IL17 antibody (antibody, V domains shown)
VH: QVQLKESGPGLVAPSQSLSITCTVSGFSLDSYGVHWVRQPPGKGLEWLVVIWSDGTTTYNSALKSRLSITKDNSKSQVFLKMNSLQTDDTAIYYCARDTHYRLYYYAMDYWGQGTSVTVSS
VL: DVVMTQTPLSLPVSLGDQASISCRSSQSLVHSNGDTYFHWYLQKPGQSPKLLIYKVSNRFSGVPDRFSGSGSGTDFTLKINRVEAEDLGVYFCSQTTHAPFTFGSGTKLEIK
As to B2, the Kd in assay [3] was 0.03 nM.
